Assays:
Assay in all cases: co-sedimentation; FtsZ or CTV mutant 5 μM with ZapD 1 or 5 μM in 50 mM K-MOPS pH 6.5, 50 mM KCl, 2.5 mM MgCl2, 3 μM BSA, 1 mM GTP, room temperature; TLA100.2, 80,000 rpm, 10 min; ZapD in the pellet by SDS-PAGE
Conditions in all cases: both partners purified
[1] = target: T1, FtsZ(QQQQ) (purified) (E. coli, UniProt P0A9A6 1-383, CTV KQAD replaced by QQQQ)
T1 construct: FtsZ of E. coli with the native CTV KQAD replaced by QQQQ (net-neutral); pLT1, pET-21b(+); also called net-neutral CTV mutant; source: E. coli C41(DE3), purified (25% saturated ammonium sulfate cut)
T1 sequence (looked up): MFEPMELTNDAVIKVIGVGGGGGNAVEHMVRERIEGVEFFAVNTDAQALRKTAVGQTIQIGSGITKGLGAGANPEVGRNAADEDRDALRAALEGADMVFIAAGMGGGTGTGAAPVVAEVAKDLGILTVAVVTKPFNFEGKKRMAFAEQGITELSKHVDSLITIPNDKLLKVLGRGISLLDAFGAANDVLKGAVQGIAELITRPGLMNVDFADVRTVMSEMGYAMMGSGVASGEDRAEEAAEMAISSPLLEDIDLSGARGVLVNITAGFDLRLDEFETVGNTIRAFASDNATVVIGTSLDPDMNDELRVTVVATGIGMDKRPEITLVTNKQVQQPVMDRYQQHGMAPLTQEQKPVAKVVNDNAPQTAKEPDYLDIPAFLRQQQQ

[2] = target: T2, FtsZ(RQAR) (purified) (E. coli, UniProt P0A9A6 1-383, CTV KQAD replaced by RQAR)
T2 construct: FtsZ of E. coli with the native CTV KQAD replaced by RQAR (net-positive); pAM3, pET-21b(+); also called net-positive CTV mutant; source: E. coli C41(DE3), purified (25% saturated ammonium sulfate cut)
T2 sequence (looked up): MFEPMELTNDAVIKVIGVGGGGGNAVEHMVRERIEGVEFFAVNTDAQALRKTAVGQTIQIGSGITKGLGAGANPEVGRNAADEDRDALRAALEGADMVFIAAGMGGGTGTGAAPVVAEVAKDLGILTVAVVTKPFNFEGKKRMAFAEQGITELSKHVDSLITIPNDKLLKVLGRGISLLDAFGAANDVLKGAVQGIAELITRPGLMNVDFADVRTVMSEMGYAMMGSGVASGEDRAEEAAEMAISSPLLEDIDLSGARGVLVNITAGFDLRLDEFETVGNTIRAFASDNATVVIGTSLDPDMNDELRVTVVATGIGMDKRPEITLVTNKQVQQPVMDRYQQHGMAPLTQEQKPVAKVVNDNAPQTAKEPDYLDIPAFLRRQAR

[3] = target: T3, FtsZ(KQAK) (purified) (E. coli, UniProt P0A9A6 1-383, CTV KQAD replaced by KQAK)
T3 construct: FtsZ of E. coli with the native CTV KQAD replaced by KQAK (net-positive); pKHH8, pET-21b(+); also called net-positive CTV mutant; source: E. coli C41(DE3), purified (25% saturated ammonium sulfate cut)
T3 sequence (looked up): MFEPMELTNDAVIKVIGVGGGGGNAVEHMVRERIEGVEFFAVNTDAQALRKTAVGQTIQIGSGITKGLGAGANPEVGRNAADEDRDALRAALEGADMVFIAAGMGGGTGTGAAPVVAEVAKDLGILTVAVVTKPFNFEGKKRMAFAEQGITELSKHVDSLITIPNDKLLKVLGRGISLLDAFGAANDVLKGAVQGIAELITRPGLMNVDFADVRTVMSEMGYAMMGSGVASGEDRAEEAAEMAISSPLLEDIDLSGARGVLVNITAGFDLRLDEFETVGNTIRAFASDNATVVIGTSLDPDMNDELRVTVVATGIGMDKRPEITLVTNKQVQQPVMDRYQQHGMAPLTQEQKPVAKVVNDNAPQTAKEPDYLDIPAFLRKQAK

[4] = target: T4, FtsZ(DQAK) (purified) (E. coli, UniProt P0A9A6 1-383, CTV KQAD replaced by DQAK)
T4 construct: FtsZ of E. coli with the native CTV KQAD replaced by DQAK (net-neutral); pKHH9, pET-21b(+); also called net-neutral CTV mutant; source: E. coli C41(DE3), purified (25% saturated ammonium sulfate cut)
T4 sequence (looked up): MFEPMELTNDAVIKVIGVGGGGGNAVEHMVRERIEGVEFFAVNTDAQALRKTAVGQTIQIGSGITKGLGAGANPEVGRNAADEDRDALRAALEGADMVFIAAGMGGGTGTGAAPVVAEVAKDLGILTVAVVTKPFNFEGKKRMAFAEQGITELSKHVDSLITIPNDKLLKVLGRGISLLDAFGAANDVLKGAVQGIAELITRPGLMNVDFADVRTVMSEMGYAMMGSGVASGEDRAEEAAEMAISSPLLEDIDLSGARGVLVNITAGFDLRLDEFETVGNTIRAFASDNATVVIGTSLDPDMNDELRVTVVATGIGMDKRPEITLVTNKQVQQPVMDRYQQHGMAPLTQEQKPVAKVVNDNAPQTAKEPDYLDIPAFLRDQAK

binding result [1]: binds
binding result [2]: binds
binding result [3]: binds
binding result [4]: binds
B1: ZapD (purified) (natural protein, E. coli, UniProt P36680 1-247, looked up)
chain: MQTQVLFEHPLNEKMRTWLRIEFLIQQLTVNLPIVDHAGALHFFRNVSELLDVFERGEVRTELLKELDRQQRKLQTWIGVPGVDQSRIEALIQQLKAAGSVLISAPRIGQFLREDRLIALVRQRLSIPGGCCSFDLPTLHIWLHLPQAQRDSQVETWIASLNPLTQALTMVLDLIRQSAPFRKQTSLNGFYQDNGGDADLLRLNLSLDSQLYPQISGHKSRFAIRFMPLDTENGQVPERLDFELACC
notes: ZapD, Z-ring stabilizer of E. coli; also called purified ZapD; pET28b-His10-Smt3-ZapD

— publication PMC4835091, “Characterization of the FtsZ C-Terminal Variable (CTV) Region in Z-Ring Assembly and Interaction with the Z-Ring Stabilizer ZapD in E. coli Cytokinesis” (PLoS ONE, 2016)
